Source: paper PMC11617674, “The activity of the ribonucleotide monophosphatase UmpH is controlled by interaction with the GlnK signaling protein in Escherichia coli” (The Journal of Biological Chemistry, 2024)
pKd: −log10 of the molar value.

Columns and labels:
[1] = target: UmpH (ribonucleotide monophosphatase), untagged recombinant (E. coli) (UniProt P0AF24)
[2] = target: UmpH (ribonucleotide monophosphatase), untagged recombinant (E. coli) (UniProt P0AF24); remark: listed apart in the source
[3] = target: His-GlnK (E. coli PII signaling protein GlnK, N-terminal His tag) (E. coli) (UniProt P0AC55); experiment: BLI; His-GlnK on Ni-NTA biosensor, UmpH as analyte; 20 mM Hepes pH 7.4, 50 mM KCl, 5 mM MgCl2, 2 mM DTT, 2 mM NAG; 1 mM ATP; 1:1 (GlnK trimer:UmpH monomer) model
Chain of His-GlnK (E. coli PII signaling protein GlnK, N-terminal His tag) (E. coli) (P0AC55 whole entry): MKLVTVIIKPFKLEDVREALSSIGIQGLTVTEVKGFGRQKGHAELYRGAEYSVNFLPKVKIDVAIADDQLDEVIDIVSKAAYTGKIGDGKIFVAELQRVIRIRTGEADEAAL

[4] = target: His-GlnK (E. coli PII signaling protein GlnK, N-terminal His tag) (E. coli) (UniProt P0AC55); experiment: BLI; His-GlnK on Ni-NTA biosensor, UmpH as analyte; 20 mM Hepes pH 7.4, 50 mM KCl, 5 mM MgCl2, 2 mM DTT, 2 mM NAG; no effector; 1:1 (GlnK trimer:UmpH monomer) model
[5] = target: His-GlnK (E. coli PII signaling protein GlnK, N-terminal His tag) (E. coli) (UniProt P0AC55); experiment: BLI; His-GlnK on Ni-NTA biosensor, UmpH as analyte; 20 mM Hepes pH 7.4, 50 mM KCl, 5 mM MgCl2, 2 mM DTT, 2 mM NAG; 1 mM ADP; 1:1 (GlnK trimer:UmpH monomer) model

Chain of UmpH (ribonucleotide monophosphatase), untagged recombinant (E. coli) (P0AF24 whole entry): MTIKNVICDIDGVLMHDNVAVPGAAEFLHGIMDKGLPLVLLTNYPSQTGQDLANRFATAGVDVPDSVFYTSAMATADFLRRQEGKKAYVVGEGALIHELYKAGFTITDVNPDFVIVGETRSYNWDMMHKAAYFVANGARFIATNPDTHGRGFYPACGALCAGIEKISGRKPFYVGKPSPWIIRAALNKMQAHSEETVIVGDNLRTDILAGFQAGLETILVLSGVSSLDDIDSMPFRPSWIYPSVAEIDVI

An inhibition of UmpH phosphatase activity (0.5 mM UMP, 0.1 mM ADP, 0.56 μM UmpH) against increasing GlnK trimer up to 2 μM [1] of 50%, a UmpH Vmax (phosphate release from UMP), decrease in the presence of 2 μM GlnK trimer, 0.56 μM UmpH monomer, no GlnK effectors [2] of 30% and a UmpH catalytic efficiency (Vmax/KM) for UMP, decrease in the presence of 2 μM GlnK trimer, 0.56 μM UmpH monomer, no GlnK effectors [2] of 68% were found for “His-GlnK (E. coli PII signaling protein GlnK, N-terminal His tag) (from UniProt P0AC55 1-112) (natural protein)” in this work.
A pKd [3] of 7.43, a pKd [4] of 7.30 and a pKd [5] of 8.11 were found for “UmpH (ribonucleotide monophosphatase), untagged recombinant (from UniProt P0AF24 1-250) (enzyme)” in this work.
